Results published in patent publication US20200024330A1.

What was measured:
Assay in all cases: cell-based or functional assay
[1] = target: HIV-1 92RW020 envelope glycoprotein (Env) (HIV-1)
[2] = target: HIV-1 93UG077 envelope glycoprotein (Env) (HIV-1)
[3] = target: HIV-1 94UG103 envelope glycoprotein (Env) (HIV-1)
[4] = target: HIV-1 APV13 envelope glycoprotein (Env) (HIV-1)
[5] = target: HIV-1 APV17 envelope glycoprotein (Env) (HIV-1)
[6] = target: HIV-1 APV6 envelope glycoprotein (Env) (HIV-1)
[7] = target: HIV-1 Env of isolate 92BR020 (HIV-1)
[8] = target: HIV-1 Env of isolate 92RW008 (HIV-1)
[9] = target: HIV-1 Env of isolate 92UG031 (HIV-1)
[10] = target: HIV-1 Env of isolate 92UG037 (HIV-1)
[11] = target: HIV-1 Env of isolate 92WR009 (HIV-1)
[12] = target: HIV-1 Env of isolate 92WR020 (HIV-1)
[13] = target: HIV-1 Env of isolate 92WR021 (HIV-1)
[14] = target: HIV-1 Env of isolate 92WR024 (HIV-1)
[15] = target: HIV-1 Env of isolate 92WR026 (HIV-1)
[16] = target: HIV-1 Env of isolate 93WR029 (HIV-1)
[17] = target: HIV-1 Env of isolate 94KE105 (HIV-1)
[18] = target: HIV-1 Env of isolate 94UG103 (HIV-1)
[19] = target: HIV-1 Env of isolate CMU02 (HIV-1)
[20] = target: HIV-1 Env of isolate MGRM-A-001 (HIV-1)
[21] = target: HIV-1 Env of isolate MGRM-A-002 (HIV-1)
[22] = target: HIV-1 Env of isolate MGRM-A-003 (HIV-1)
[23] = target: HIV-1 Env of isolate MGRM-A-005 (HIV-1)
[24] = target: HIV-1 Env of isolate MGRM-A-006 (HIV-1)
[25] = target: HIV-1 Env of isolate MGRM-A-007 (HIV-1)
[26] = target: HIV-1 Env of isolate MGRM-A-010 (HIV-1)
[27] = target: HIV-1 Env of isolate MGRM-A-011 (HIV-1)
[28] = target: HIV-1 Env of isolate MGRM-A-013 (HIV-1)
[29] = target: HIV-1 Env of isolate MGRM-A-014 (HIV-1)
[30] = target: HIV-1 Env of isolate MGRM-AE-002 (HIV-1)
[31] = target: HIV-1 Env of isolate MGRM-AE-003 (HIV-1)
[32] = target: HIV-1 Env of isolate VLGCA1 (HIV-1)
[33] = target: HIV-1 JRCSF envelope glycoprotein (Env) (HIV-1) (UniProt P20871)
[34] = target: HIV-1 JRFL envelope glycoprotein (Env) (HIV-1)
[35] = target: HIV-1 MGRM-A-010 envelope glycoprotein (Env) (HIV-1)
[36] = target: HIV-1 MGRM-C-026 envelope glycoprotein (Env) (HIV-1)
[37] = target: HIV-1 MGRM-C-028 envelope glycoprotein (Env) (HIV-1)

B1: PGT-123 (antibody, V domains shown)
VH: QLHLQESGPGLVKPPETLSLTCSVSGASINDAYWSWIRQSPGKRPEWVGYVHHSGDTNYNPSLKRRVTFSLDTAKNEVSLKLVDLTAADSATYFCARALHGKRIYGIVALGELFTYFYMDVWGKGTAVTVSS
VL: SSMSVSPGETAKISCGKESIGSRAVQWYQQKPGQPPSLIIYNNQDRPAGVPERFSASPDFRPGTTATLTITNVDAEDEADYYCHIYDARGGTNWVFDRGTTLTVL
IC50 neutralization [1]: 0.0038 µg/mL
IC50 neutralization [2]: 0.0303 µg/mL
IC50 neutralization [3]: 0.846 µg/mL
IC50 neutralization [4]: 0.222 µg/mL
IC50 neutralization [5]: 0.18 µg/mL
IC50 neutralization [6]: 0.0328 µg/mL
Primary Neutralization Index (B cell culture well 4858 P8) [7]: 2.8
IC50 (µg/mL), pseudovirus neutralization [8]: 0.003 µg/mL
IC50 (µg/mL), pseudovirus neutralization [9]: > 50 µg/mL
IC50 (µg/mL), pseudovirus neutralization [10]: 0.023 µg/mL
IC50 (µg/mL), pseudovirus neutralization [11]: 15.7 µg/mL
IC50 (µg/mL), pseudovirus neutralization [12]: 0.002 µg/mL
IC50 (µg/mL), pseudovirus neutralization [13]: 0.005 µg/mL
IC50 (µg/mL), pseudovirus neutralization [14]: > 50 µg/mL
IC50 (µg/mL), pseudovirus neutralization [15]: 0.012 µg/mL
IC50 (µg/mL), pseudovirus neutralization [16]: > 50 µg/mL
IC50 (µg/mL), pseudovirus neutralization [17]: 0.024 µg/mL
IC50 (µg/mL), pseudovirus neutralization [18]: 0.678 µg/mL
Primary Neutralization Index (B cell culture well 4858 P8) [18]: 1.1
IC50 (µg/mL), pseudovirus neutralization [19]: > 50 µg/mL
IC50 (µg/mL), pseudovirus neutralization [20]: > 50 µg/mL
IC50 (µg/mL), pseudovirus neutralization [21]: 0.011 µg/mL
IC50 (µg/mL), pseudovirus neutralization [22]: 0.495 µg/mL
IC50 (µg/mL), pseudovirus neutralization [23]: > 50 µg/mL
IC50 (µg/mL), pseudovirus neutralization [24]: > 50 µg/mL
IC50 (µg/mL), pseudovirus neutralization [25]: > 50 µg/mL
IC50 (µg/mL), pseudovirus neutralization [26]: 0.705 µg/mL
IC50 (µg/mL), pseudovirus neutralization [27]: > 50 µg/mL
IC50 (µg/mL), pseudovirus neutralization [28]: 0.565 µg/mL
IC50 (µg/mL), pseudovirus neutralization [29]: 0.003 µg/mL
IC50 (µg/mL), pseudovirus neutralization [30]: > 50 µg/mL
IC50 (µg/mL), pseudovirus neutralization [31]: > 50 µg/mL
IC50 (µg/mL), pseudovirus neutralization [32]: > 50 µg/mL
IC50 neutralization [33]: 0.0423 µg/mL
IC50 neutralization [34]: 0.0283 µg/mL
IC50 neutralization [35]: 0.492 µg/mL
IC50 neutralization [36]: 0.0031 µg/mL
IC50 neutralization [37]: 0.443 µg/mL
